T1: recombinant human CD123-Fc (human, UniProt P26951 19-305)
T1 construct: not shown: Fc part of CD123-Fc
T1 sequence: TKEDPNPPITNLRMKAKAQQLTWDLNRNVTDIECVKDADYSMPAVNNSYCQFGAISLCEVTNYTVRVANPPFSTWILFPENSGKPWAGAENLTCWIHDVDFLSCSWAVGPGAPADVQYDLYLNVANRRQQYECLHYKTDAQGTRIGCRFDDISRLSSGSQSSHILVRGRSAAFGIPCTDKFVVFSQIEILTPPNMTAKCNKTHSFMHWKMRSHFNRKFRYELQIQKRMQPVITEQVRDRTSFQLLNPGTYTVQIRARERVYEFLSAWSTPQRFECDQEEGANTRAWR

B1: SEQ ID NO: 389 (designed binder)
chain: MGSWWEFIWRLEAIEQRLWALGGSEAELAAFEKEIAAFESELQAYKGKGNPEVEVLRSRAADIRTDLQAYRHN
notes: D domain, on phage
B2: SEQ ID NO: 365 (designed binder)
chain: MGSWHEFDQRLWAIEERLWALGGSEAELAAFEKEIAAFESELQAYKGKGNPEVETLRLYAALIRHDLQAYRHN
notes: D domain, on phage
B3: SEQ ID NO: 327 (designed binder)
chain: MGSWTEFVWRLEAIWDRLDALGGSEAELAAFEKEIAAFESELQAYKGKGNPEVEVLREDAAVIRHFLQAYRHN
notes: D domain, on phage
B4: SEQ ID NO: 361 (designed binder)
chain: MGSWDEFEQRLIAIEERLFALGGSEAELAAFEKEIAAFESELQAYKGKGNPEVEWLREEAAVIRKYLQAYRHN
notes: D domain, on phage
B5: SEQ ID NO: 335 (designed binder)
chain: MGSWDEFYYRLEAIEMRLGALGGSEAELAAFEKEIAAFESELQAYKGKGNPEVEELRHYAAQIRHMLQAYRHN
notes: D domain, on phage
B6: SEQ ID NO: 336 (designed binder)
chain: B5 chain with D5E, Y9D, E15Y, M16N, E55V, H58E, Q62D, H65E
notes: D domain, on phage
B7: SEQ ID NO: 334 (designed binder)
chain: MGSWDEFAWRLDVIFARLGALGGSEAELAAFEKEIAAFESELQAYKGKGNPEVEELRKNAAQIRDGLQAYRHN
notes: D domain, on phage
B8: SEQ ID NO: 366 (designed binder)
chain: MGSWVEFWDRLDAIEGRLWALGGSEAELAAFEKEIAAFESELQAYKGKGNPEVEDLRWLAAEIRADLQAYRHN
notes: D domain, on phage
B9: SEQ ID NO: 376 (designed binder)
chain: B8 chain with V5Y, D9G, G16E, K48R, D55M, W58E, L59D, A65G, D66Q
notes: D domain, on phage
B10: SEQ ID NO: 373 (designed binder)
chain: MGSWFEFNYRLGAIEDRLWALGGSEAELAAFEKEIAAFESELQAYKGKGNPEVEMLRQIAAEIREFLQAYRHN
notes: D domain, on phage
B11: SEQ ID NO: 377 (designed binder)
chain: MGSWVEFWDRLWAIDYRLFALGGSEAELAAFEKEIAAFESELQAYKGKGNPEVEALRDEAAWIREELQAYRHN
notes: D domain, on phage
B12: SEQ ID NO: 391 (designed binder)
chain: B11 chain with V5S, W8E, Y16Q, A55W, D58A, E59Y, W62D, E65W
notes: D domain, on phage
B13: SEQ ID NO: 384 (designed binder)
chain: B11 chain with V5D, W8E, D9E, W12F, Y16E, F19W, D58Y, E59L, W62D
notes: D domain, on phage
B14: SEQ ID NO: 378 (designed binder)
chain: B11 chain with W8V, Y16E, F19D, A55F, D58T, E59W, E66D
notes: D domain, on phage
B15: SEQ ID NO: 390 (designed binder)
chain: B11 chain with V5S, W8Y, D15E, Y16E, A55Y, D58Y, E59Y, W62E
notes: D domain, on phage
B16: SEQ ID NO: 374 (designed binder)
chain: MGSWEEFFTRLDAINERLEALGGSEAELAAFEKEIAAFESELQAYKGKGNPEVEMLRYEAAEIRHMLQAYRHN
notes: D domain, on phage
B17: SEQ ID NO: 375 (designed binder)
chain: MGSWYEFSNRLDAIGERLWALGGSEAELAAFEKEIAAFESELQAYKGKGNPEVEILRHQAAEIRWFLQAYRHN
notes: D domain, on phage
B18: SEQ ID NO: 410 (designed binder)
chain: MGSWYEFAIRLDAIYERLHALGGSEAELAAFEKEIAAFESELQAYKGKGNPEVEYLRVWAANIRTELQAYRHN
notes: D domain, on phage
B19: SEQ ID NO: 430 (designed binder)
chain: B18 chain with A8D, I9Y, E16D, H19A, Y55R, V58K, T65E
notes: D domain, on phage
B20: SEQ ID NO: 416 (designed binder)
chain: B18 chain with Y5V, A8N, H19Y, Y55K, V58H, N62S, T65R
notes: D domain, on phage
B21: SEQ ID NO: 414 (designed binder)
chain: B18 chain with Y5V, A8H, I9L, E16G, H19M, Y55N, T65N
notes: D domain, on phage
B22: SEQ ID NO: 422 (designed binder)
chain: B18 chain with Y5T, I9W, E16D, H19L, Y55W, V58H, W59V, T65R
notes: D domain, on phage
B23: SEQ ID NO: 431 (designed binder)
chain: B18 chain with Y5S, A8Y, I9L, E16D, H19D, Y55W, V58K, W59T, T65E
notes: D domain, on phage
B24: SEQ ID NO: 425 (designed binder)
chain: B18 chain with A8S, I9M, E16D, H19M, Y55Q, V58G, W59Y, T65N
notes: D domain, on phage
B25: SEQ ID NO: 424 (designed binder)
chain: B18 chain with Y5V, A8Y, E16V, H19M, Y55K, V58S, W59Y, T65Q
notes: D domain, on phage
B26: SEQ ID NO: 426 (designed binder)
chain: B18 chain with Y5V, A8I, I9Y, E16D, H19E, Y55V, V58R, W59Y, T65N
notes: D domain, on phage
B27: SEQ ID NO: 411 (designed binder)
chain: B18 chain with Y5N, A8V, H19L, V58M, W59A, T65M
notes: D domain, on phage
B28: SEQ ID NO: 417 (designed binder)
chain: B18 chain with Y5H, A8G, I9V, E16D, H19M, Y55F, V58Q, W59A, T65S
notes: D domain, on phage
B29: SEQ ID NO: 418 (designed binder)
chain: MGSWTEFNLRLDAIYDRLMALGGSEAELAAFEKEIAAFESELQAYKGKGNPEVEWLRASAAAIRVELQAYRHN
notes: D domain, on phage
B30: SEQ ID NO: 429 (designed binder)
chain: B29 chain with T5F, N8Y, L9M, M19T, W55R, A58T, S59F, A62N, V65K
notes: D domain, on phage
B31: SEQ ID NO: 423 (designed binder)
chain: B18 chain with Y5V, A8S, E16T, H19V, Y55M, V58K, W59G, T65K
notes: D domain, on phage
B32: SEQ ID NO: 419 (designed binder)
chain: B29 chain with D16G, M19S, W55F, S59A, A62N
notes: D domain, on phage
B33: SEQ ID NO: 427 (designed binder)
chain: B18 chain with Y5I, A8E, I9V, E16N, H19A, Y55R, V58R, W59Y, T65H
notes: D domain, on phage
B34: SEQ ID NO: 421 (designed binder)
chain: B18 chain with Y5N, I9W, E16S, H19A, Y55W, W59A, T65Y
notes: D domain, on phage
B35: SEQ ID NO: 428 (designed binder)
chain: B18 chain with Y5F, A8Y, I9D, E16M, H19I, Y55V, V58R, W59Y, T65A
notes: D domain, on phage
B36: SEQ ID NO: 413 (designed binder)
chain: B18 chain with Y5S, A8H, I9V, E16A, H19D, Y55R, V58E, T65R
notes: D domain, on phage
B37: SEQ ID NO: 415 (designed binder)
chain: B18 chain with Y5V, A8E, I9M, Y15V, E16G, H19Y, Y55K, V58R, T65S
notes: D domain, on phage
B38: SEQ ID NO: 412 (designed binder)
chain: B18 chain with Y5S, A8Y, I9V, L11V, E16A, H19S, Y55K, T65H
notes: D domain, on phage
B39: SEQ ID NO: 420 (designed binder)
chain: B29 chain with T5V, L9W, M19V, A58V, A62K, V65G
notes: D domain, on phage
B40: SEQ ID NO: 362 (designed binder)
chain: MGSWVEFDQRLGAIWDRLVALGGSEAELAAFEKEIAAFESELQAYKGKGNPEVEHLRQGAAVIRDDLQAYRHN
notes: D domain, on phage
B41: SEQ ID NO: 333 (designed binder)
chain: MGSWEEFAQRLYAIEWRLYALGGSEAELAAFEKEIAAFESELQAYKGKGNPEVEVLRYVAAQIRYHLQAYRHN
notes: D domain, on phage
B42: SEQ ID NO: 352 (designed binder)
chain: B4 chain with E8G, Q9R, I12Y, E16W, F19Y, W55K, E59I, K65S, Y66N
notes: D domain, on phage
B43: SEQ ID NO: 387 (designed binder)
chain: MGSWLEFMWRLDAIDERLWALGGSEAELAAFEKEIAAFESELQAYKGKGNPEVELLREMAAAIRDDLQAYRHN
notes: D domain, on phage
B44: SEQ ID NO: 385 (designed binder)
chain: MGSWEEFWERLDAIDTRLWALGGSEAELAAFEKEIAAFESELQAYKGKGNPEVEVLRNDAADIREPLQAYRHN
notes: D domain, on phage
B45: SEQ ID NO: 388 (designed binder)
chain: B43 chain with L5T, M8Y, W9N, E16Q, L55M, M59Y, A62D, D65T
notes: D domain, on phage
B46: SEQ ID NO: 386 (designed binder)
chain: B44 chain with E5M, D12E, T16M, V55Y, N58D, D62V, E65D, P66D
notes: D domain, on phage

Where a chain is given by its changes, count along the chain named.

This assay has as its target T1, recombinant human CD123-Fc. The experiment in a line: phage ELISA, captured CD123-Fc. The method, then: Individual colonies containing phagemid from BCMA panning output were picked and phage were rescued in 96-well format using VCSM13 helper phage following standard protocols. To assay target binding by ELISA, 96-well plates were coated with 1.3 microg/ml goat anti-human IgG1-Fc antibody followed by incubation with 5 nM of recombinant human target (BCMA-Fc, CD123-Fc, AFP, or AFP123) or IgG1-Fc. 50 microl of rescued phage diluted 5× in ELISA blocking buffer was then added to each well. Binding was detected using an HRP-conjugated anti-M13 antibody and the ELISA ratio for each sequence is reported as the absorbance at 450 nm for target (i.e., BCMA-Fc, CD123-Fc, AFP, or AFP123) divided by that for IgG1-Fc averaged across all screened wells containing that clone.
As to B1, the ELISA_avg turned out to be 4 ratio A450 target/IgG1-Fc. As to B2, the ELISA_avg amounted to 3.3 ratio A450 target/IgG1-Fc.

With B3, the ELISA_avg came to 3.6 ratio A450 target/IgG1-Fc. The figure for B4 is 5.9 ratio A450 target/IgG1-Fc; for B5 it is 7.2 ratio A450 target/IgG1-Fc. Consider B6, for which the ELISA_avg is 18.6 ratio A450 target/IgG1-Fc. On to B7, for which the ELISA_avg was found to be 4.6 ratio A450 target/IgG1-Fc.

On to B8, for which the ELISA_avg came to 3.5 ratio A450 target/IgG1-Fc. Take B9: the ELISA_avg worked out at 5.4 ratio A450 target/IgG1-Fc.

For B10, the ELISA_avg amounted to 6.9 ratio A450 target/IgG1-Fc. In the case of B11, the ELISA_avg was 3.6 ratio A450 target/IgG1-Fc. B12: the ELISA_avg came out at 4.2 ratio A450 target/IgG1-Fc. Take B13: the ELISA_avg was determined as 5 ratio A450 target/IgG1-Fc. Regarding B14, the ELISA_avg is 3.2 ratio A450 target/IgG1-Fc. As for B15, the ELISA_avg turned out to be 17 ratio A450 target/IgG1-Fc. As to B16, the ELISA_avg came to 3.9 ratio A450 target/IgG1-Fc. Take B17: the ELISA_avg was determined as 3.9 ratio A450 target/IgG1-Fc. For B18, the ELISA_avg stood at 25.5 ratio A450 target/IgG1-Fc. Regarding B19, the ELISA_avg amounted to 24.9 ratio A450 target/IgG1-Fc. As for B20, the ELISA_avg came to 13.4 ratio A450 target/IgG1-Fc. B21: the ELISA_avg was determined as 17.5 ratio A450 target/IgG1-Fc. B22: the ELISA_avg stood at 16.1 ratio A450 target/IgG1-Fc. As to B23, the ELISA_avg worked out at 15.7 ratio A450 target/IgG1-Fc.

With B24, the ELISA_avg is 13 ratio A450 target/IgG1-Fc. For the molecule B25, the ELISA_avg is 16.1 ratio A450 target/IgG1-Fc. B26: the ELISA_avg turned out to be 17 ratio A450 target/IgG1-Fc. For B27, the ELISA_avg stood at 16.6 ratio A450 target/IgG1-Fc. As for B28, the ELISA_avg was 15.6 ratio A450 target/IgG1-Fc.

Regarding B29, the ELISA_avg worked out at 14.4 ratio A450 target/IgG1-Fc.

Consider B30, for which the ELISA_avg is 13.1 ratio A450 target/IgG1-Fc. The figure for B31 is 15.1 ratio A450 target/IgG1-Fc; for B32 it is 19.3 ratio A450 target/IgG1-Fc; for B33 it is 20.8 ratio A450 target/IgG1-Fc. For B34, the ELISA_avg turned out to be 17.7 ratio A450 target/IgG1-Fc.

With B35, the ELISA_avg was 13.6 ratio A450 target/IgG1-Fc. The figure for B36 is 14.4 ratio A450 target/IgG1-Fc. B37: the ELISA_avg was found to be 25.3 ratio A450 target/IgG1-Fc. The value for B38 was 14.7 ratio A450 target/IgG1-Fc; that for B39 was 9.3 ratio A450 target/IgG1-Fc. Regarding B40, the ELISA_avg is 5.3 ratio A450 target/IgG1-Fc. The figure for B41 is 16.9 ratio A450 target/IgG1-Fc; for B42 it is 5.8 ratio A450 target/IgG1-Fc; for B43 it is 5.1 ratio A450 target/IgG1-Fc. B44: the ELISA_avg amounted to 6.8 ratio A450 target/IgG1-Fc. Regarding B45, the ELISA_avg was found to be 3.3 ratio A450 target/IgG1-Fc. Take B46: the ELISA_avg amounted to 4.2 ratio A450 target/IgG1-Fc.

The values are drawn from patent US20230125550A1 (ARCELLX, published 2023).
